# Values quoted from earlier work as cited in publication PMC5855594, “Poly-N-Acetyllactosamine Neo-Glycoproteins as Nanomolar Ligands of Human Galectin-3: Binding Kinetics and Modeling” (International Journal of Molecular Sciences, 2018).
# Legend:
# [1] = biological target: BSA neo-glycoprotein 13 (Bos taurus) (UniProt P02769); assay: competitive ELISA
# [2] = biological target: BSA neo-glycoprotein 15 (Bos taurus) (UniProt P02769); assay: competitive ELISA
# [3] = biological target: BSA neo-glycoprotein 16 (Bos taurus); assay: competitive ELISA
# [4] = biological target: BSA neo-glycoprotein 14 (Bos taurus) (UniProt P02769); assay: competitive ELISA
# [5] = biological target: Asialofetuin (Bos taurus) (UniProt P12763); assay: ITC
# [6] = biological target: BSA neo-glycoprotein 13 (Bos taurus) (UniProt P02769); assay: ELISA
# [7] = biological target: BSA neo-glycoprotein 15 (Bos taurus) (UniProt P02769); assay: ELISA
# [8] = biological target: BSA neo-glycoprotein 16 (Bos taurus); assay: ELISA
# [9] = biological target: BSA neo-glycoprotein 12 (Bos taurus) (UniProt P02769); assay: ELISA
# [10] = biological target: BSA neo-glycoprotein 11 (Bos taurus) (UniProt P02769); assay: ELISA
# [11] = biological target: BSA neo-glycoprotein 14 (Bos taurus) (UniProt P02769); assay: ELISA
# Chain of Galectin-3 (P17931 2-250): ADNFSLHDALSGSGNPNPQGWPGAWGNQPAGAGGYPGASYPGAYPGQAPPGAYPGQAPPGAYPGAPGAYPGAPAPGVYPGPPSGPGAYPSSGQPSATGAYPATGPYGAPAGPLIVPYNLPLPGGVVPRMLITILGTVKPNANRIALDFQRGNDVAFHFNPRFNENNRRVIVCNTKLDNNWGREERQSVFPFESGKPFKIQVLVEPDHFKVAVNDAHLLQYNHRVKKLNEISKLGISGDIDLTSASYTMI
# Chain of BSA neo-glycoprotein 13 (Bos taurus) (P02769 25-607): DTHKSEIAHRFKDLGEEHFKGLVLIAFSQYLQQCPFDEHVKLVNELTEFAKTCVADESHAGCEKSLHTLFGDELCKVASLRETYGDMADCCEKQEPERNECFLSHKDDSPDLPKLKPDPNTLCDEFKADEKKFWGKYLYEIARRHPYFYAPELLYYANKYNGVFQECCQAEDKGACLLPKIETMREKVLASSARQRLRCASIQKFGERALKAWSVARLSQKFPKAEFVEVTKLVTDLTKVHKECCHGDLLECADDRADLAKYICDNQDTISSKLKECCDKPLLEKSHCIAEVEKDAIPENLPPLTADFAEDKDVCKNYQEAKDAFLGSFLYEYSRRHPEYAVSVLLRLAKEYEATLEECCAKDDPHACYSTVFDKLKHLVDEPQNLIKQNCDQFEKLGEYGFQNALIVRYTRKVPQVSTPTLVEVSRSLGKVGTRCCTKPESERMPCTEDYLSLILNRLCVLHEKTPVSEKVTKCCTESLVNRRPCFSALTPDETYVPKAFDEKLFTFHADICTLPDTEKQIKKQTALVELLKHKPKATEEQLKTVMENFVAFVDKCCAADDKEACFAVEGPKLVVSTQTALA
# Chain of BSA neo-glycoprotein 15 (Bos taurus) (P02769 25-607): as above
# Chain of BSA neo-glycoprotein 16 (Bos taurus) (P02769 25-607): as above
# Chain of BSA neo-glycoprotein 14 (Bos taurus) (P02769 25-607): as above
# Chain of BSA neo-glycoprotein 11 (Bos taurus) (P02769 25-607): as above
# Chain of BSA neo-glycoprotein 12 (Bos taurus) (P02769 25-607): as above
# Chain of Asialofetuin (Bos taurus) (P12763 19-359): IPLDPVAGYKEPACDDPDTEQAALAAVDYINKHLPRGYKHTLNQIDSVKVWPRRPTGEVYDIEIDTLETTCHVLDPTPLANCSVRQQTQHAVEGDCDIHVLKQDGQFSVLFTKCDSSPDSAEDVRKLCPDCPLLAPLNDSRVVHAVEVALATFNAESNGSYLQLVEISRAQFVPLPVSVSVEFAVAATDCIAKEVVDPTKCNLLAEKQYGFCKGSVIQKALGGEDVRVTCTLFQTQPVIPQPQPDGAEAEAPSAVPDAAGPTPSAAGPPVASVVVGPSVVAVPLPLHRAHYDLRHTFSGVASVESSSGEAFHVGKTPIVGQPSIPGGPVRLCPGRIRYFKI
substance,measurement,setting,value
Galectin-3 (from UniProt P17931),IC50,[1],37 nM
same,IC50,[2],212 nM
same,IC50,[3],65 nM
same,IC50,[4],76 nM
same,Kd,[5],7.14 nM
same,Kd,[6],76 nM
same,Kd,[7],700 nM
same,Kd,[8],290 nM
same,Kd,[9],300 nM
same,Kd,[10],30 nM
same,Kd,[11],350 nM
